The text below walks through data of patent US20220387578A1.

As usually defined, the EC50 is the concentration that produces a half-maximal response.

Experiment [1] concerns the target H12 HA A/duck/Alberta/60/1976, recombinant (influenza A virus).
Experiment [2] concerns the target H14 HA A/mallard duck/Astrakhan/263/1982, recombinant (influenza A virus).
For experiment [3], the target named is H15 HA A/shearwater/Western Australia/2576/1979, recombinant (influenza A virus).
In experiment [4] the target is H2 HA A/Singapore/1/1957, recombinant soluble trimer (influenza A virus).
Experiment [5] addresses H5 HA A/Indonesia/05/2005 (H5N1), recombinant (influenza A virus).
Experiment [6] addresses H7 HA A/Shanghai/2/2013 (H7N9), recombinant uncleaved trimer (influenza A virus).
Experiment [7] has as its target H9 HA A/Hong Kong/1073/99, recombinant (influenza A virus).
Experiment [8] has as its target H3 HA A/Hong Kong/1/1968 (H3N2), recombinant soluble trimer (influenza A virus), Q91MA7. The following applies: remark: other sources report otherwise.

B1: rFluA-20 heavy chain mutant Y34A (antibody, V domains shown)
VH: QVQLQESGPGLVKPSETLSLTCSVSGVSVTSDIAYWTWIRQPPGKGLEWIGYIFYNGDTNYNPSLKSRVTMSIDTSKNEFSLRLTSVTAADTAVYFCARGTEDLGYCSSGSCPNHWGQGTLVTVSS
VL: DIQMTQSPSSLSASIGDRVTITCRPSQNIRSFLNWFQHKPGKAPKLLIYAASNLQSGVPSRFSGSGSGTEFTLTIRSLQPEDFATYYCQQSYNTPPTFGQGTKVEIK
Regarding B1, the EC50 in experiment [1] stood at 0.05 µg/mL; in experiment [2] it was 0.54 µg/mL; in experiment [3], 0.1 µg/mL; in experiment [4], 0.11 µg/mL; in experiment [6], 0.44 µg/mL; in experiment [7], 0.21 µg/mL. In addition, the EC50 relative to wild type rFluA-20 in experiment [5] is above 100 fold.

B2: rFluA-20 light chain mutant Q55A (antibody, V domains shown)
VH: QVQLQESGPGLVKPSETLSLTCSVSGVSVTSDIYYWTWIRQPPGKGLEWIGYIFYNGDTNYNPSLKSRVTMSIDTSKNEFSLRLTSVTAADTAVYFCARGTEDLGYCSSGSCPNHWGQGTLVTVSS
VL: DIQMTQSPSSLSASIGDRVTITCRPSQNIRSFLNWFQHKPGKAPKLLIYAASNLASGVPSRFSGSGSGTEFTLTIRSLQPEDFATYYCQQSYNTPPTFGQGTKVEIK
For B2, the EC50 in experiment [8] was 0.08 µg/mL.

B3: rFluA-20 heavy chain mutant E97A (antibody, V domains shown)
VH: QVQLQESGPGLVKPSETLSLTCSVSGVSVTSDIYYWTWIRQPPGKGLEWIGYIFYNGDTNYNPSLKSRVTMSIDTSKNEFSLRLTSVTAADTAVYFCARGTADLGYCSSGSCPNHWGQGTLVTVSS
VL: DIQMTQSPSSLSASIGDRVTITCRPSQNIRSFLNWFQHKPGKAPKLLIYAASNLQSGVPSRFSGSGSGTEFTLTIRSLQPEDFATYYCQQSYNTPPTFGQGTKVEIK
As to B3, the EC50 in experiment [1] stood at 0.06 µg/mL; in experiment [2] it was 0.64 µg/mL; in experiment [3], 0.12 µg/mL; in experiment [4], 0.13 µg/mL; in experiment [6] it was 1 µg/mL; in experiment [7], 0.36 µg/mL. For the same molecule, in experiment [5], the EC50 relative to wild type rFluA-20 is above 100 fold.

B4: rFluA-20 heavy chain mutant T96A (antibody, V domains shown)
VH: QVQLQESGPGLVKPSETLSLTCSVSGVSVTSDIYYWTWIRQPPGKGLEWIGYIFYNGDTNYNPSLKSRVTMSIDTSKNEFSLRLTSVTAADTAVYFCARGAEDLGYCSSGSCPNHWGQGTLVTVSS
VL: DIQMTQSPSSLSASIGDRVTITCRPSQNIRSFLNWFQHKPGKAPKLLIYAASNLQSGVPSRFSGSGSGTEFTLTIRSLQPEDFATYYCQQSYNTPPTFGQGTKVEIK
On to B4, for which the EC50 in experiment [1] came out at 0.04 µg/mL; in experiment [2], 0.23 µg/mL; in experiment [3], 0.07 µg/mL; in experiment [4], 0.07 µg/mL; in experiment [5], 0.11 µg/mL; in experiment [6] it was 0.37 µg/mL. Moreover, the EC50 in experiment [7] was determined as 0.1 µg/mL.

B5: rFluA-20 heavy chain mutant Y100aA (antibody, V domains shown)
VH: QVQLQESGPGLVKPSETLSLTCSVSGVSVTSDIYYWTWIRQPPGKGLEWIGYIFYNGDTNYNPSLKSRVTMSIDTSKNEFSLRLTSVTAADTAVYFCARGTEDLGACSSGSCPNHWGQGTLVTVSS
VL: DIQMTQSPSSLSASIGDRVTITCRPSQNIRSFLNWFQHKPGKAPKLLIYAASNLQSGVPSRFSGSGSGTEFTLTIRSLQPEDFATYYCQQSYNTPPTFGQGTKVEIK
On to B5, for which the EC50 relative to wild type rFluA-20 in experiment [1], in experiment [2], in experiment [3], in experiment [4], in experiment [5] and in experiment [6] was above 100 fold in each case. The EC50 relative to wild type rFluA-20 in experiment [7] was above 100 fold.
